# Data: PMC7202955 (Current biology : CB, 2020)
# B1: β3 TMD-tail (construct of the cross-linking experiment, Figure S5) (domain or fragment, UniProt P05106 711-788, looked up)
# chain: PECPKGPDILVVLLSVMGAILLIGLAALLIWKLLITIHDRKEFAKFEEERARAKWDTANNPLYKEATSTFTNITYRGT
# Target: the molecule itself
# Test: cross-linking
protein,measurement,value
B1,stoichiometry N,2
